Laboratory results from patent publication US7442684 (TRUSTEES OF COLUMBIA UNIVERSITY IN THE CITY OF NEW YORK, dated 2008).

Biological target: T1, human FSH receptor (human, UniProt P23945 18-695)
T1 construct: whole, on cells; Expressed in Y-1 (Y1) cells. cAMP is the read-out; also called hFSH receptor; recombinant native hFSH receptor
T1 sequence (looked up): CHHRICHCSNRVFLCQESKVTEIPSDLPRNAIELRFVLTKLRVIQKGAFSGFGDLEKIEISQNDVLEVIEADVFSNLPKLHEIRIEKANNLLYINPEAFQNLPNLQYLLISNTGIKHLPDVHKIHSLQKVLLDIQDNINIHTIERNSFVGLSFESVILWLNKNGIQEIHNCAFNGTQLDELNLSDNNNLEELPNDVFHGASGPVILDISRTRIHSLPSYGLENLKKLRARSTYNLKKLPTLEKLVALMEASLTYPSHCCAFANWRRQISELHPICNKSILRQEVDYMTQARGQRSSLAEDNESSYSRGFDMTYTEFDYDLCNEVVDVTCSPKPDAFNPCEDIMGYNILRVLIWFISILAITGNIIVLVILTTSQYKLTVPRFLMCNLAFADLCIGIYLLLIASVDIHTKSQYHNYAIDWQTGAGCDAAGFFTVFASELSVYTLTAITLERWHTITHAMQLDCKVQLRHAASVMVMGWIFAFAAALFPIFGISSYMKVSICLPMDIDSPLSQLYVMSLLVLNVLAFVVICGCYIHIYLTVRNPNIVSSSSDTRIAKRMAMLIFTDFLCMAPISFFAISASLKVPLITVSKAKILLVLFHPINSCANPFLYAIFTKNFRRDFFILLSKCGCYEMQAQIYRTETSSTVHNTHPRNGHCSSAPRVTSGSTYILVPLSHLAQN
Assay: conclusion drawn from the cAMP assay on cells expressing the hFSH receptor; no direct binding assay
Description: Bioactivity of the hFSH analogues was evaluated using Y-1 cells transfected with the FSH receptor. Y-1 cell cultures were mixed with the fusion protein and native pituitary hFSH (control) at varying concentrations and media was assayed for cAMP activity as described in Bouloux et al, 2001.
Figure 8: FIG. 8: In vitro bioassay of hormone activity. cAMP concentration (fmol/ml) was quantitated in Y1 cells expressing the FSH receptor after treatment with the indicated amount of either pituitary FSH (pFSH) or the FSH analogue, β-hFSH-CTP-α-hFSH (rFSH-CTP).
The bioactivity of the β-hFSH-CTP-α analogue was first assessed by an assay of hFSH receptor activity. In this assay, a recombinant native hFSH receptor is expressed in a suitable host cell and cAMP induction is measured following incubation with hormone (Lindau-Shepard et al, 2001).

binding result: binds
B1: β-hFSH-CTP-α-hFSH fusion protein (ligand)
chain: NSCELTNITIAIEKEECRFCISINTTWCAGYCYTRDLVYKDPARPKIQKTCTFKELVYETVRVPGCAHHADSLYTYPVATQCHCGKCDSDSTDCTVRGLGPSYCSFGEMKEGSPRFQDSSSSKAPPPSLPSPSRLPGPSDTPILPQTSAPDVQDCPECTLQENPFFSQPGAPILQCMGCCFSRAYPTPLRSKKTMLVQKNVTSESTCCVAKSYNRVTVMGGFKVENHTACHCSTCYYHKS
modifications: O-linked glycosylation on serines of the CTP linker; N-linked glycosylation on the FSH subunits (sites not numbered on this entry)
notes: Secreted from CHO cells; also called β-hFSH-CTP-α analogue; rFSH-CTP
